# Test results: patent publication US12351648B2, “Methods of inhibiting MASP-2 for the treatment and/or prevention of coronavirus-induced acute respiratory distress syndrome” (priority 2020, dated 2025)
# Molecular target: human MASP-2 (Homo sapiens (Human), UniProt O00187)
# Test: C3 assay: inhibition of lectin pathway C3 convertase formation in human serum (scFv clones)
# Type: biochemical
# Conditions: read-out: 1% human serum C3 assay (IC50 nM), scFv format
# Text: A functional assay that measures inhibition of lectin pathway C3 convertase formation was used to evaluate the “blocking activity” of the MASP-2 scFv candidate clones. MASP-2 serine protease activity is required in order to generate the two protein components (C4b, C2a) that comprise the lectin pathway C3 convertase. Therefore, a MASP-2 scFv that inhibits MASP-2 functional activity (i.e., a blocking MASP-2 scFv), will inhibit de novo formation of lectin pathway C3 convertase. […]
# The scFv clones were each tested in triplicate at the concentration of 2 μg/mL. […] C3c formation was monitored in the presence and absence of the scFv/IgG clones. […]
# Normal human serum was diluted to 0.5% in CaMgGVB buffer, and scFv clones or the OMS100 Fab2 positive control were added in triplicates at 0.01 μg/mL; 1 μg/mL (only OMS100 control) and 10 μg/mL to this buffer and preincubated 45 minutes on ice before addition to the blocked ELISA plate. […] C3b deposition was detected with a Rabbit α-Mouse C3c antibody followed by Goat α-Rabbit H1RP. […] The background was determined by carrying out the same assay except that the wells were mannan-free. […]
# Sequence of human MASP-2 (O00187 whole entry, looked up): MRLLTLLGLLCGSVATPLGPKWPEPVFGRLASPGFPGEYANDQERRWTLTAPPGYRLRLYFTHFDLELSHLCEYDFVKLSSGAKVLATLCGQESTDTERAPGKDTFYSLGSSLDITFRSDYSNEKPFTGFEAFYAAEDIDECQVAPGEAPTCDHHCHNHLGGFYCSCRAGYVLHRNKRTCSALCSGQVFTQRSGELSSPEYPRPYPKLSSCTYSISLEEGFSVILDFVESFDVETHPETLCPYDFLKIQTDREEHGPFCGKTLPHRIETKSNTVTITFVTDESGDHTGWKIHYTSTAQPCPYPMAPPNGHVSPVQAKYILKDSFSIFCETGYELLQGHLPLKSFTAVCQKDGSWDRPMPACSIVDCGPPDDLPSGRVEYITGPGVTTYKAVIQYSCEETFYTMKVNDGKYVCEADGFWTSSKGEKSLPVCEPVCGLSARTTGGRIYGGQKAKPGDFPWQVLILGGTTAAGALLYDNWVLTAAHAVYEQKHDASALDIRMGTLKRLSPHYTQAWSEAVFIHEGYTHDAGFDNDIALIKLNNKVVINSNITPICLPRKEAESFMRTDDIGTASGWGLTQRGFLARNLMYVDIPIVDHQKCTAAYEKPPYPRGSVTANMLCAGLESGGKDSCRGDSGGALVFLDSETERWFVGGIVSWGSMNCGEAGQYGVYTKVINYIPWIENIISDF
row,Molecule,IC50 [nM]
1,"17D20mc: mother scFv clone, fully human MASP-2 antibody from phage display (TABLE 8, ""all in scFv format"") (protein) scFv: QVTLKESGPVLVKPTETLTLTCTVSGFSLSRGKMGVSWIRQPPGKALEWLAHIFSSDEKSYRTSLKSRLTISKDTSKNQVVLTMTNMDPVDTATYYCARIRAGGIDYWGQGTLVTVSSKLSGSASAPKLEEGEFSEARVQPVLTQPPSVSVSPGQTASITCSGDKLGDKFAYWYQQKPGHSPVLVIYQDNKRPSGIPGRFSGSNSGNTATLTISGTQAMDEADYYCQAWDSSTAVFGTGTKVTVLAAAGSEQKLISEEDLNSHHHHHH",38
2,"17N16mc: mother scFv clone, fully human MASP-2 antibody from phage display (TABLE 8, ""all in scFv format"") (protein) scFv: QVQLQQSGPGLVKPSQTLSLTCAISGDSVSSTSAAWNWIRQSPSRGLEWLGRTYYRSKWYNDYAVSVKSRITINPDTSKNQFSLQLNSVTPEDTAVYYCARDPFGVPFDIWGQGTMVTVSSKLSGSASAPKLEEGEFSEARVSYVLTQPPSVSVAPGQTARITCGGNNIGSKNVHWYQQKPGQAPVLVVYDDSDRPSGIPERFSGSNSGNTATLTVSRVEAGDEADYYCQVWDTTTDHVVFGGGTKLTVLAAAGSEQKLISEEDLNSHHHHHH",68
